The source of these data is article PMC8669763.

For the assay, the target named is HLA-B*51:01 (human | human (endogenous in 721.221)).

KIR3DL1, sequence (P43629 22-444): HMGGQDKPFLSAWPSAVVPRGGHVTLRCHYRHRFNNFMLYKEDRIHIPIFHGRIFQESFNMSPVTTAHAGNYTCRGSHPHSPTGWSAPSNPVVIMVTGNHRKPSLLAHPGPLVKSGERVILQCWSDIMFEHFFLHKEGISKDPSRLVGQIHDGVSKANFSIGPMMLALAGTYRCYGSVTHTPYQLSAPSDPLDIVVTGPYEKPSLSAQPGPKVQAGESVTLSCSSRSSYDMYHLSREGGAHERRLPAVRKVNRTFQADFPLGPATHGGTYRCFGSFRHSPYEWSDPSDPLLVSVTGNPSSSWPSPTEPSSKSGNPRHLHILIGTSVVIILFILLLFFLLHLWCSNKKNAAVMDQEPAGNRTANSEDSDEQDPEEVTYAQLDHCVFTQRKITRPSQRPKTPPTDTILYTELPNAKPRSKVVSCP

Substance “KIR3DL1 (from UniProt P43629 22-444) (receptor)” gave a degranulation: mean frequency of CD107a+ cells in the KIR3DL1 single positive NK subset after co-culture (1:1, 3 hours) with 221-B*51:01-shERAP1 (% CD107a+ cells) of 25.8.
